Measurements published in US20160264674A1 (ADURO BIOTECH HOLDINGS EUROPE B V, published 2016).

T1: FLAG-tagged human APRIL (human, UniProt O75888 105-250, limits assumed)
T1 construct: also called FLAG-tagged APRIL; FLAG-APRIL; not shown: FLAG tag
T1 sequence (looked up): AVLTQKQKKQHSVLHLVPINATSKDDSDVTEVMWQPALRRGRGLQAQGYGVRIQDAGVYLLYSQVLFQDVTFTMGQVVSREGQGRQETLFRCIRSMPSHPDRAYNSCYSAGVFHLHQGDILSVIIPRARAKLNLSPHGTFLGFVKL


Molecular target: T1, FLAG-tagged human APRIL
Assay: ELISA on FLAG-tagged human APRIL captured by anti-FLAG
Method: The plasmids encoding the VH and VL constructs were mixed in a 1:3 ratio (4 μg in total) and transiently expressed by transfection into HEK293T human embryonic kidney cells (HEK293T/17, ATCC-CRL-11268), using Lipofectamine 2000 transfection reagent (Invitrogen) following the manufacturer's instructions. Cell supernatants were harvested after 5 days and tested for expression of antibody and binding to APRIL using an enzyme-linked immuno assay (ELISA). In these ELISAs, all incubation steps were followed by a wash step with PBST (PBS with 0.01% Tween 20). Maxisorb 96-wells plates (Nunc) were coated with 0.5 μg/ml anti-FLAG (Sigma) or anti-IgG4 (Jackson laboratories) and incubated overnight at 4° C. Subsequently the anti-FLAG coated 96-wells plates were incubated with FLAG-tagged human APRIL for 1 hour at room temperature. Next, supernatants and dilutions thereof were incubated for 1 hour, which was followed by an incubation of 1 hour with mouse anti-human IgG HRP-conjugate (Southern Biotechnology).
Immunoreactivity was visualized with 100 μl TMB Stabilized Chromagen (Invitrogen). Reactions were stopped with 100 μl 0.5 M H2504 and absorbances were measured at 450 and 620 nm.

Row | binding result | Binder
1 | no binding | VH12.VL11 (combination of VH12 with VL11) (antibody, human IgG4, V domains shown, Human IgG4 (S241P) / human kappa; Member of the group 'combinations of VH11-VH14 with VL10-VL14') VH: QVQLVQSGAEVKKPGASVKVSCKASGYTFTSYVMHWVRQAPGQGLEWMGYINPYNDAPKYNEKFKGRVTMTRDTSISTAYMELSRLRSDDTAVYYCARGLGYALYYAMDYWGQGTTVTVSS VL: DIVMTQSQKFMPTSVGDRVSVTCKASQNVGNNVAWYQQKPGQSPKALIYSASNRDSGVPDRFTGSGSGTDFTLTITNVQSEDLAEYFCQQYNIYPFTFGAGTKLELK
2 | no binding | VH13.VL11 (combination of VH13 with VL11) (antibody, human IgG4, V domains shown, Human IgG4 (S241P) / human kappa; Member of the group 'combinations of VH11-VH14 with VL10-VL14') VH: QVQLVQSGAEVKKPGASVKVSCKASGYTFTSYVMHWVRQAPGQGLEWMGYINPYNDAPKYNEKFKGRVTMTRDTSTSTVYMELSSLRSEDTAVYYCARGLGYALYYAMDYWGQGTMVTVSS VL: DIVMTQSQKFMPTSVGDRVSVTCKASQNVGNNVAWYQQKPGQSPKALIYSASNRDSGVPDRFTGSGSGTDFTLTITNVQSEDLAEYFCQQYNIYPFTFGAGTKLELK
3 | no binding | VH14.VL14 (combination of VH14 with VL14) (antibody, human IgG4, V domains shown, Human IgG4 (S241P) / human kappa; Member of the group 'combinations of VH11-VH14 with VL10-VL14') VH: QVQLVQSGAEVKKPGASVKVSCKASGYTFTSYVMHWVRQAPGQGLEWMGYINPYNDAPKYNEKFKGRVTMTRDTSASTAYMELSSLRSDDTAVYYCARGLGYALYYAMDYWGQGTTVTVSS VL: DILMTQSQKIMPTSVGDRVSVTCKASQNVGNNVAWYQQKPGQSPKALIYSASNRDSGVPDRFTGSGSGTDFTLTITNVQSEDLAEYFCQQYNIYPFTFGAGTKLDLK

More lines, now with the values behind:

Row | Binder | binding result
4 | VH11.VL14 (combination of VH11 with VL14) (antibody, human IgG4, V domains shown, Human IgG4 (S241P) / human kappa; Member of the group 'combinations of VH11-VH14 with VL10-VL14') VH: QVQLVQSGAEVKKPGASVKVSCKASGYTFTSYVMHWVRQAPGQRLEWMGYINPYNDAPKYNEKFKGRVTITRDTSASTAYMELSSLRSEDTAVYYCARGLGYALYYAMDYWGQGTTVTVSS VL: DILMTQSQKIMPTSVGDRVSVTCKASQNVGNNVAWYQQKPGQSPKALIYSASNRDSGVPDRFTGSGSGTDFTLTITNVQSEDLAEYFCQQYNIYPFTFGAGTKLDLK | no binding
5 | VH12.VL14 (combination of VH12 with VL14) (antibody, human IgG4, V domains shown, Human IgG4 (S241P) / human kappa; Member of the group 'combinations of VH11-VH14 with VL10-VL14') VH: QVQLVQSGAEVKKPGASVKVSCKASGYTFTSYVMHWVRQAPGQGLEWMGYINPYNDAPKYNEKFKGRVTMTRDTSISTAYMELSRLRSDDTAVYYCARGLGYALYYAMDYWGQGTTVTVSS VL: DILMTQSQKIMPTSVGDRVSVTCKASQNVGNNVAWYQQKPGQSPKALIYSASNRDSGVPDRFTGSGSGTDFTLTITNVQSEDLAEYFCQQYNIYPFTFGAGTKLDLK | no binding
6 | VH13.VL14 (combination of VH13 with VL14) (antibody, human IgG4, V domains shown, Human IgG4 (S241P) / human kappa; Member of the group 'combinations of VH11-VH14 with VL10-VL14') VH: QVQLVQSGAEVKKPGASVKVSCKASGYTFTSYVMHWVRQAPGQGLEWMGYINPYNDAPKYNEKFKGRVTMTRDTSTSTVYMELSSLRSEDTAVYYCARGLGYALYYAMDYWGQGTMVTVSS VL: DILMTQSQKIMPTSVGDRVSVTCKASQNVGNNVAWYQQKPGQSPKALIYSASNRDSGVPDRFTGSGSGTDFTLTITNVQSEDLAEYFCQQYNIYPFTFGAGTKLDLK | no binding
